Test results reported in the RNAGym collection of RNA variant scans (doi:10.1073/pnas.2313332121).
Fewer inactive variants are shown than the library holds.

B1: TPR 5TU (parent)
chain: GGAUCUUCUCGAUCUAACAAAAAAGACAAAUCUGCCACAAAGCUUGAGAGCAUCUUCGGAUGCAGAGGCGGCAGCCUUCGGUGGCGCGAUAGCGCCAACGUUCUCAACUAUGACACGCAAAACGCGUGCUCCGUUGAAUGGAGUUUAUCAUG

Variants of: B1
Test: polymerase ribozyme fitness, log enrichment relative to wild type (log ratio); higher = more active; in vitro selection for triplet polymerase activity
Summary of the method: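 Mutant libraries of each subunit of a heterodimeric triplet polymerase ribozyme were built by PCR and transcribed. Each library went through one round of in vitro selection in triplicate: annealing with biotinylated primer, partner subunit and triplets, frozen incubation at −7 °C, gel excision of extended constructs, streptavidin-bead capture and RT-PCR. Input and output libraries were Illumina-sequenced; only genotypes with ≥10 input reads and ≥1 read per output were kept. Fitness is log2(genotype enrichment/wild-type enrichment), using inverse-variance-weighted replicate averages.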

First: C51U C63U G83C U151C
Second: U13A C35U C57U
The “polymerase ribozyme fitness (log ratio)” value of the first is lower: ≤ -4.2 for the first, -1.42 for the second.

First: G74U C96A C118U
Second: A39G G84U U127A
The “polymerase ribozyme fitness (log ratio)” value of the first is higher: -3.97 for the first, ≤ -4.2 for the second.

A64C and A29C U55A C75A C85U G141C cannot be ordered by “polymerase ribozyme fitness (log ratio)” value: ≤ -4.2 for the first, ≤ -4.2 for the second.

C54A U55A U77G A121C A137U and A17U C32G G48A C79G G84U G86U C108U cannot be ordered by “polymerase ribozyme fitness (log ratio)” value: ≤ -4.2 for the first, ≤ -4.2 for the second.

First: A49C C99U U102G
Second: A21G A91G A115U C116A
The “polymerase ribozyme fitness (log ratio)” value of the first is higher: -0.308 for the first, -3.91 for the second.

A16U C35A G74A G80C G83U G86A A97U and U13G C14G A20U A37G A47C A49U C99U C149U cannot be ordered by “polymerase ribozyme fitness (log ratio)” value: ≤ -4.2 for the first, ≤ -4.2 for the second.

U4C A20U A29U G46C C54U C85U C116U and A28U G50C C54U C95A A107U G143U cannot be ordered by “polymerase ribozyme fitness (log ratio)” value: ≤ -4.2 for the first, ≤ -4.2 for the second.

A22U G140A and U6A A37U G124A G126C are the same in “polymerase ribozyme fitness (log ratio)” value: -2.83 for the first, -2.83 for the second.

Going from U33G G65A G70C C108U to C85U U101G C125U, the “polymerase ribozyme fitness (log ratio)” value rises from ≤ -4.2 to -0.351.

First: C87A A91G C103U U135C
Second: A28C U144G
The “polymerase ribozyme fitness (log ratio)” value of the first is lower: ≤ -4.2 for the first, -4.03 for the second.

First: G48C G80A C85U A120U A137G
Second: C18U G50U C96G U146C
The “polymerase ribozyme fitness (log ratio)” value of the first is lower: ≤ -4.2 for the first, -0.747 for the second.

Going from U45G C79G G83U C85G U102C to G58C A122U A142G G143A, the “polymerase ribozyme fitness (log ratio)” value rises from ≤ -4.2 to -4.05.

Compared with C69A G92U, C5G U55G C79G C85U U130G is lower in “polymerase ribozyme fitness (log ratio)” value: -1.15 for the first, ≤ -4.2 for the second.

Going from G92U C103U G136U to C32G U82G, the “polymerase ribozyme fitness (log ratio)” value falls from -3.43 to ≤ -4.2.

First: G58A C85G A115G
Second: A24C U56G G59C A91U U144C G152U
The “polymerase ribozyme fitness (log ratio)” value of the first is higher: -2.89 for the first, ≤ -4.2 for the second.

First: A47G G80A
Second: A37C A40G C57U A73C C93U
The “polymerase ribozyme fitness (log ratio)” value of the first is higher: -0.0419 for the first, ≤ -4.2 for the second.

First: A12G A17U A49G A60G A91G
Second: U104G A113U U127A G141A
The “polymerase ribozyme fitness (log ratio)” value of the first is higher: -2.9 for the first, ≤ -4.2 for the second.

C57A C85A A107G and C87A C103A C114U cannot be ordered by “polymerase ribozyme fitness (log ratio)” value: ≤ -4.2 for the first, ≤ -4.2 for the second.

Compared with U56C U102G A142G, A21G G88A U90C U127C U135G C149U is lower in “polymerase ribozyme fitness (log ratio)” value: -3.95 for the first, ≤ -4.2 for the second.

Going from G67A C87U to G94C U151A, the “polymerase ribozyme fitness (log ratio)” value rises from -4.13 to -3.85.

Compared with U6C A29U A41C G42U G59C C85U G100U A107G G124A, A30U G92U is higher in “polymerase ribozyme fitness (log ratio)” value: ≤ -4.2 for the first, -3.52 for the second.

Going from U9C C14U C57G C93G G140U to A73C, the “polymerase ribozyme fitness (log ratio)” value rises from ≤ -4.2 to -2.13.

Compared with U9G C10U U77G G83A A110G, U7G G141C is higher in “polymerase ribozyme fitness (log ratio)” value: ≤ -4.2 for the first, -3.41 for the second.

First: A20G A22C
Second: C14G A47C C54G U56A C93A C108U G124U G128A
The “polymerase ribozyme fitness (log ratio)” value of the first is higher: -0.665 for the first, ≤ -4.2 for the second.

A19U U44A U53A A73U C85U G136A and U44A C131G cannot be ordered by “polymerase ribozyme fitness (log ratio)” value: ≤ -4.2 for the first, ≤ -4.2 for the second.

First: A30U C35U G84A
Second: A22G C51G A91U G94U U144C
The “polymerase ribozyme fitness (log ratio)” value of the first is higher: -4.19 for the first, ≤ -4.2 for the second.

Going from A60G C96A A121U to A16G U31C C51U U53G C125A G140C, the “polymerase ribozyme fitness (log ratio)” value falls from -0.437 to ≤ -4.2.

First: C27U U53A C85G
Second: C76A G86C C116G C123A
The “polymerase ribozyme fitness (log ratio)” value of the first is lower: -3.88 for the first, -2.66 for the second.

Compared with A3G A24U U55A C85A, C8A U31C A41U G58A G71A C76U C125U A142G is lower in “polymerase ribozyme fitness (log ratio)” value: -2.17 for the first, ≤ -4.2 for the second.

First: C18G C51U C87G C99A U101C C118U G136A
Second: U6A A28G A73G C93G C99A C131A
The “polymerase ribozyme fitness (log ratio)” value of the first is lower: ≤ -4.2 for the first, -4.19 for the second.

Going from C35U A37C U55A C95U to U7C C35U U127G, the “polymerase ribozyme fitness (log ratio)” value falls from -1.32 to -3.61.

Going from C38U G46U G84A U127G G143C to A17G U145C, the “polymerase ribozyme fitness (log ratio)” value rises from ≤ -4.2 to 0.174.

C54G A73G C79A U82G C87U A122U G141C and U15G G25C C51A C96G C149G cannot be ordered by “polymerase ribozyme fitness (log ratio)” value: ≤ -4.2 for the first, ≤ -4.2 for the second.

Compared with A60G G94U, C14U U31C C76U G84U A142G G143U U146G is lower in “polymerase ribozyme fitness (log ratio)” value: -0.467 for the first, ≤ -4.2 for the second.

First: A40U C76U
Second: A29U A89U G94A C116G G141A
The “polymerase ribozyme fitness (log ratio)” value of the first is higher: -0.102 for the first, ≤ -4.2 for the second.

Going from G59U C95U to A17C G34U C51U C57A G86A, the “polymerase ribozyme fitness (log ratio)” value falls from -2.6 to -4.06.

Compared with C36A C87U, A20G A41G C54U U56A C93G A120G U139G is higher in “polymerase ribozyme fitness (log ratio)” value: -3.89 for the first, -2.99 for the second.

Compared with C35U G92C U135C, A19U G71U G83C U146G is lower in “polymerase ribozyme fitness (log ratio)” value: -2.73 for the first, ≤ -4.2 for the second.

Compared with C14G A39G U53A C54U C93A, A22U C54A is higher in “polymerase ribozyme fitness (log ratio)” value: ≤ -4.2 for the first, -0.932 for the second.

Compared with U15G C38U C87U U104A, C14A A16C U56G C57G A91C G136U is lower in “polymerase ribozyme fitness (log ratio)” value: -1.04 for the first, ≤ -4.2 for the second.

First: A29U A40U G68U C69U G92A G140C
Second: A17C U31C A47C U55A C76U G84U
The “polymerase ribozyme fitness (log ratio)” value of the first is lower: ≤ -4.2 for the first, -3.49 for the second.

In the case of U82C G112U G152A, the “polymerase ribozyme fitness (log ratio)” value is reported as -3.59.
